Patent US7183387 (Genentech, dated 2007)

T1: human FcγRIIA-Arg131 α subunit extracellular domain-His6-GST fusion (human, UniProt P12318 34-217)
T1 construct: extracellular domain; also called FcγRIIA-R131; not shown: glutathione S transferase (GST)
T1 sequence: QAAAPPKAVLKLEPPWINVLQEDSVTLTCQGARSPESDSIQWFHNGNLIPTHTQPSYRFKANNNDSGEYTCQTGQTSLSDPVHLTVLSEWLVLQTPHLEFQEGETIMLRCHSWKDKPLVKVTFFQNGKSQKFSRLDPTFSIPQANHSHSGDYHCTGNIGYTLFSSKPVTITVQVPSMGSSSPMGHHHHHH

T2: human FcγRIIB α subunit extracellular domain-His6-GST fusion (human, UniProt P31994 43-217)
T2 construct: extracellular domain; also called CD32; not shown: glutathione S transferase (GST)
T2 sequence: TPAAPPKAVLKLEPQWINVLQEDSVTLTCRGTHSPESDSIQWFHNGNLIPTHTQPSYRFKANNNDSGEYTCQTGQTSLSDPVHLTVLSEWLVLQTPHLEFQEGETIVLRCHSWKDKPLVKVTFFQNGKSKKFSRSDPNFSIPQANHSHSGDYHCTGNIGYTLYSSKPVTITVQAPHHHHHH

T3: human FcγRIIA-R131 α subunit extracellular domain-His6-GST fusion (human, UniProt P12318 34-217)
T3 construct: ECD-6His-GST fusion made in 293 cells; also called FcγRIIA-Arg131; not shown: glutathione S transferase (GST)
T3 sequence: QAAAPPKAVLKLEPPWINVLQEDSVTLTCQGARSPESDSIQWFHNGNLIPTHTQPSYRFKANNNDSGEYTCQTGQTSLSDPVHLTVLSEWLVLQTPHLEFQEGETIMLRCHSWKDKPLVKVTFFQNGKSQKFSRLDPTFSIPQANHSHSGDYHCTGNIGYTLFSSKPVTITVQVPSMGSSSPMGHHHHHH


Experiments:
[1] = target: T1, human FcγRIIA-Arg131 α subunit …; assay: hexamer ELISA
[2] = target: T4, human FcγRIIIA-Phe158 α subunit extracellular domain-His6-GST fusion (human, UniProt P08637 17-208); assay: hexamer ELISA
T4 construct: extracellular domain; also called FcγRIIIA-F158; CD16; not shown: glutathione S transferase (GST)

[3] = target: T2, human FcγRIIB α subunit extracellular …; assay: hexamer ELISA
[4] = target: T5, human FcγRIA α subunit extracellular domain-His6-GST fusion (human, UniProt P12314 16-292); assay: FcγRI ELISA and THP-1 cells, averaged
T5 construct: extracellular domain; also called GST-FcγRIA; CD64; not shown: glutathione S transferase (GST)

[5] = target: T6, human neonatal Fc receptor (FcRn), biotinylated (human, UniProt P55899 24-297; P61769 21-119, biotinylated (biotin-X-NHS)); assay: FcRn ELISA, pH 6.0;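 also: Streptavidin-captured FcRn plates, IgG variants titrated 2 h at pH 6.0, peroxidase anti-human IgG read at 450 nm, variant over standard concentration at the standard curve mid-point absorbance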
T6 construct: captured on streptavidin plates
Experimental: FcRn Binding ELISA: For measuring FcRn binding activity of IgG variants, ELISA plates were coated with 2 µg/ml streptavidin (Zymed, South San Francisco) in 50 mM carbonate buffer, pH 9.6, at 4° C. overnight and blocked with PBS-0.5% BSA, pH 7.2 at room temperature for one hour. Biotinylated FcRn (prepared using biotin-X-NHS from Research Organics, Cleveland, Ohio and used at 1–2 µg/ml) in PBS-0.5% BSA, 0.05% polysorbate 20, pH 7.2, was added to the plate and incubated for one hour. Two fold serial dilutions of IgG standard (1.6–100 ng/ml) or variants in PBS-0.5% BSA, 0.05% polysorbate 20, pH 6.0, were added to the plate and incubated for two hours. Bound IgG was detected using peroxidase labeled goat F(ab')_2 anti-human IgG F(ab')_2 in the above pH 6.0 buffer (Jackson ImmunoResearch, West Grove, Pa.) followed by 3,3',5,5'-tetramethyl benzidine (Kirgaard & Perry Laboratories) as the substrate. Plates were washed between steps with PBS-0.05% TWEEN 20® at either pH 7.2 or 6.0. Absorbance was read at 450 nm on a Vmax plate reader (Molecular Devices, Menlo Park, Calif.). Titration curves were fit with a four-parameter nonlinear regression curve-fitting program (KaleidaGraph, Synergy software, Reading, Pa.). Concentrations of IgG variants corresponding to the mid-point absorbance of the titration curve of the standard were calculated and then divided by the concentration of the standard corresponding to the mid-point absorbance of the standard titration curve.

[6] = target: T3, human FcγRIIA-R131 α subunit …; assay: ELISA, IgG complex, receptor coated
[7] = target: T7, human FcγRIIIA-F158 α subunit extracellular domain-His6-GST fusion (human, UniProt P08637 17-208); assay: ELISA, IgG complex, receptor coated
T7 construct: ECD-6His-GST fusion made in 293 cells; also called FcγRIIIA-Phe158; not shown: glutathione S transferase (GST)

[8] = target: T8, human FcγRIIIA-V158 α subunit extracellular domain-His6-GST fusion (human, UniProt P08637 17-208); assay: ELISA, IgG monomer, receptor coated
T8 construct: ECD-6His-GST fusion made in 293 cells; also called FcγRIIIA-Val158; not shown: glutathione S transferase (GST)
T8 sequence (P08637 other isoform, or with tags, fused parts or gaps, form in doubt): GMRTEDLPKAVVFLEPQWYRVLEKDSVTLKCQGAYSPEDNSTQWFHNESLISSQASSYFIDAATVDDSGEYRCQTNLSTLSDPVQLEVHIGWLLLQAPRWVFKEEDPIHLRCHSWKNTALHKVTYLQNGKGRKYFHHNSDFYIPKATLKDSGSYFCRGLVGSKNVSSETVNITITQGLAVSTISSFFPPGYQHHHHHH

T4 sequence (P08637 other isoform, or with tags, fused parts or gaps): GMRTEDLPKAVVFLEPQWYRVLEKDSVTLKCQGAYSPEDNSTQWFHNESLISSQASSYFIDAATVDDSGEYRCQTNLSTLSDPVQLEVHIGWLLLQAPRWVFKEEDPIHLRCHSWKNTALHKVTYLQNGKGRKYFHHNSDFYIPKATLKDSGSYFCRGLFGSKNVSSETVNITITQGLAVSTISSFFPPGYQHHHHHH
T7 sequence (P08637 other isoform, or with tags, fused parts or gaps, form in doubt): as the sequence (P08637 other isoform, or with tags, fused parts or gaps) above
T5 sequence (P12314 other isoform, or with tags, fused parts or gaps): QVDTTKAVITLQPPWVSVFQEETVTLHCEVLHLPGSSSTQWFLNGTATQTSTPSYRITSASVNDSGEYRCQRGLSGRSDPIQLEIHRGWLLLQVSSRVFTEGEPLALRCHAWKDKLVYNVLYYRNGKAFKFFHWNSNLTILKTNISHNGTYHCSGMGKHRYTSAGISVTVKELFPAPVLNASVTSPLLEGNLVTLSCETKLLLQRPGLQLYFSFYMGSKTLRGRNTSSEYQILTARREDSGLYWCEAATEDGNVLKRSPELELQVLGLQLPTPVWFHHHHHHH

Binder | ratio to native IgG1 [1] [ratio] | ratio to native IgG1 [2] [ratio] | ratio to native IgG1 [3] [ratio] | ratio to native IgG1 [4] [ratio] | ratio to native IgG1 [5] [ratio] | ratio of binding, variant/native IgG1 (mean) [6] [ratio] | ratio of binding, variant/native IgG1 (mean) [7] [ratio] | ratio of binding, variant/native IgG1 (mean) [8] [ratio]
anti-IgE E27 IgG1 Ser239Ala (antibody) heavy: not shown light: DIQLTQSPSSLSASVGDRVTITCRASKPVDGEGDSYLNWYQQKPGKAPKLLIYAASYLESGVPSRFSGSGSGTDFTLTISSLQPEDFATYYCQQSHEDPYTFGQGTKVEIKRTVAAPSVFIFPPSDEQLKSGTASVVCLLNNFYPREAKVQWKVDNALQSGNSQESVTEQDSKDSTYSLSSTLTLSKADYEKHKVYACEVTHQGLSSPVTKSFNRGEC | 0.73 | 0.26 | 0.76 | 0.81 | 1.06 | – | – | –
anti-IgE E27 IgG1 Thr256Ala (antibody) heavy: not shown light: DIQLTQSPSSLSASVGDRVTITCRASKPVDGEGDSYLNWYQQKPGKAPKLLIYAASYLESGVPSRFSGSGSGTDFTLTISSLQPEDFATYYCQQSHEDPYTFGQGTKVEIKRTVAAPSVFIFPPSDEQLKSGTASVVCLLNNFYPREAKVQWKVDNALQSGNSQESVTEQDSKDSTYSLSSTLTLSKADYEKHKVYACEVTHQGLSSPVTKSFNRGEC | 1.41 | 1.32 | 2.06 | 1.01 | 1.91 | – | – | –
anti-IgE E27 IgG1 Ser424Ala (antibody) heavy: not shown light: DIQLTQSPSSLSASVGDRVTITCRASKPVDGEGDSYLNWYQQKPGKAPKLLIYAASYLESGVPSRFSGSGSGTDFTLTISSLQPEDFATYYCQQSHEDPYTFGQGTKVEIKRTVAAPSVFIFPPSDEQLKSGTASVVCLLNNFYPREAKVQWKVDNALQSGNSQESVTEQDSKDSTYSLSSTLTLSKADYEKHKVYACEVTHQGLSSPVTKSFNRGEC | 1.04 | 0.89 | 1.02 | 0.98 | 1.41 | – | – | –
anti-IgE E27 IgG1 Ser298Ala (antibody, also called G36 S298A) heavy: not shown light: DIQLTQSPSSLSASVGDRVTITCRASKPVDGEGDSYLNWYQQKPGKAPKLLIYAASYLESGVPSRFSGSGSGTDFTLTISSLQPEDFATYYCQQSHEDPYTFGQGTKVEIKRTVAAPSVFIFPPSDEQLKSGTASVVCLLNNFYPREAKVQWKVDNALQSGNSQESVTEQDSKDSTYSLSSTLTLSKADYEKHKVYACEVTHQGLSSPVTKSFNRGEC | 0.4 | 1.34 | 0.23 | 1.11 | 0.8 | – | – | –
anti-IgE E27 IgG1 Ser267Ala (antibody, also called G15 S267A) heavy: not shown light: DIQLTQSPSSLSASVGDRVTITCRASKPVDGEGDSYLNWYQQKPGKAPKLLIYAASYLESGVPSRFSGSGSGTDFTLTISSLQPEDFATYYCQQSHEDPYTFGQGTKVEIKRTVAAPSVFIFPPSDEQLKSGTASVVCLLNNFYPREAKVQWKVDNALQSGNSQESVTEQDSKDSTYSLSSTLTLSKADYEKHKVYACEVTHQGLSSPVTKSFNRGEC | 1.52 | 1.05 | 1.84 | 1.09 | 1.08 | – | – | –
anti-IgE E27 IgG1 Ser337Ala (antibody) heavy: not shown light: DIQLTQSPSSLSASVGDRVTITCRASKPVDGEGDSYLNWYQQKPGKAPKLLIYAASYLESGVPSRFSGSGSGTDFTLTISSLQPEDFATYYCQQSHEDPYTFGQGTKVEIKRTVAAPSVFIFPPSDEQLKSGTASVVCLLNNFYPREAKVQWKVDNALQSGNSQESVTEQDSKDSTYSLSSTLTLSKADYEKHKVYACEVTHQGLSSPVTKSFNRGEC | 1.22 | 0.94 | 1.26 | 1.17 | 1.03 | – | – | –
anti-IgE E27 IgG1 Thr307Ala (antibody) heavy: not shown light: DIQLTQSPSSLSASVGDRVTITCRASKPVDGEGDSYLNWYQQKPGKAPKLLIYAASYLESGVPSRFSGSGSGTDFTLTISSLQPEDFATYYCQQSHEDPYTFGQGTKVEIKRTVAAPSVFIFPPSDEQLKSGTASVVCLLNNFYPREAKVQWKVDNALQSGNSQESVTEQDSKDSTYSLSSTLTLSKADYEKHKVYACEVTHQGLSSPVTKSFNRGEC | 1.07 | 1.09 | 1.27 | 0.99 | 1.81 | – | – | –
anti-IgE E27 IgG1 Ser415Ala (antibody) heavy: not shown light: DIQLTQSPSSLSASVGDRVTITCRASKPVDGEGDSYLNWYQQKPGKAPKLLIYAASYLESGVPSRFSGSGSGTDFTLTISSLQPEDFATYYCQQSHEDPYTFGQGTKVEIKRTVAAPSVFIFPPSDEQLKSGTASVVCLLNNFYPREAKVQWKVDNALQSGNSQESVTEQDSKDSTYSLSSTLTLSKADYEKHKVYACEVTHQGLSSPVTKSFNRGEC | 0.9 | 0.86 | 0.88 | 1.04 | 0.44 | – | – | –

Second part, the binder after the results:

ratio to native IgG1 [1] [ratio] | ratio to native IgG1 [2] [ratio] | ratio to native IgG1 [3] [ratio] | ratio to native IgG1 [4] [ratio] | ratio to native IgG1 [5] [ratio] | ratio of binding, variant/native IgG1 (mean) [6] [ratio] | ratio of binding, variant/native IgG1 (mean) [7] [ratio] | ratio of binding, variant/native IgG1 (mean) [8] [ratio] | Binder
– | – | – | – | – | 1.14 | 0.95 | 0.67 | anti-IgE E27 IgG1 variant E283(300)D (antibody, Fc variant of E27) heavy: not shown light: DIQLTQSPSSLSASVGDRVTITCRASKPVDGEGDSYLNWYQQKPGKAPKLLIYAASYLESGVPSRFSGSGSGTDFTLTISSLQPEDFATYYCQQSHEDPYTFGQGTKVEIKRTVAAPSVFIFPPSDEQLKSGTASVVCLLNNFYPREAKVQWKVDNALQSGNSQESVTEQDSKDSTYSLSSTLTLSKADYEKHKVYACEVTHQGLSSPVTKSFNRGEC
– | – | – | – | – | 1.18 | 0.94 | 0.63 | anti-IgE E27 IgG1 variant E283(300)N (antibody, Fc variant of E27; also called IG2 228) heavy: not shown light: DIQLTQSPSSLSASVGDRVTITCRASKPVDGEGDSYLNWYQQKPGKAPKLLIYAASYLESGVPSRFSGSGSGTDFTLTISSLQPEDFATYYCQQSHEDPYTFGQGTKVEIKRTVAAPSVFIFPPSDEQLKSGTASVVCLLNNFYPREAKVQWKVDNALQSGNSQESVTEQDSKDSTYSLSSTLTLSKADYEKHKVYACEVTHQGLSSPVTKSFNRGEC
– | – | – | – | – | 1.12 | 1.19 | 0.89 | anti-IgE E27 IgG1 variant E283(300)Q (antibody, Fc variant of E27; also called IG2 226) heavy: not shown light: DIQLTQSPSSLSASVGDRVTITCRASKPVDGEGDSYLNWYQQKPGKAPKLLIYAASYLESGVPSRFSGSGSGTDFTLTISSLQPEDFATYYCQQSHEDPYTFGQGTKVEIKRTVAAPSVFIFPPSDEQLKSGTASVVCLLNNFYPREAKVQWKVDNALQSGNSQESVTEQDSKDSTYSLSSTLTLSKADYEKHKVYACEVTHQGLSSPVTKSFNRGEC
1.12 | 0.84 | 1.23 | 1.04 | 1.46 | – | – | – | anti-IgE E27 IgG1 Val305Ala (antibody) heavy: not shown light: DIQLTQSPSSLSASVGDRVTITCRASKPVDGEGDSYLNWYQQKPGKAPKLLIYAASYLESGVPSRFSGSGSGTDFTLTISSLQPEDFATYYCQQSHEDPYTFGQGTKVEIKRTVAAPSVFIFPPSDEQLKSGTASVVCLLNNFYPREAKVQWKVDNALQSGNSQESVTEQDSKDSTYSLSSTLTLSKADYEKHKVYACEVTHQGLSSPVTKSFNRGEC
0.86 | 0.33 | 0.65 | 0.91 | 1.26 | – | – | – | anti-IgE E27 IgG1 Val303Ala (antibody) heavy: not shown light: DIQLTQSPSSLSASVGDRVTITCRASKPVDGEGDSYLNWYQQKPGKAPKLLIYAASYLESGVPSRFSGSGSGTDFTLTISSLQPEDFATYYCQQSHEDPYTFGQGTKVEIKRTVAAPSVFIFPPSDEQLKSGTASVVCLLNNFYPREAKVQWKVDNALQSGNSQESVTEQDSKDSTYSLSSTLTLSKADYEKHKVYACEVTHQGLSSPVTKSFNRGEC
– | – | – | – | – | 1.24 | 1.01 | 0.78 | anti-IgE E27 IgG1 variant E283(300)A (antibody, Fc variant of E27; also called IG2 25) heavy: not shown light: DIQLTQSPSSLSASVGDRVTITCRASKPVDGEGDSYLNWYQQKPGKAPKLLIYAASYLESGVPSRFSGSGSGTDFTLTISSLQPEDFATYYCQQSHEDPYTFGQGTKVEIKRTVAAPSVFIFPPSDEQLKSGTASVVCLLNNFYPREAKVQWKVDNALQSGNSQESVTEQDSKDSTYSLSSTLTLSKADYEKHKVYACEVTHQGLSSPVTKSFNRGEC
